Tested on: Escherichia coli TOP10
Assay: shrunken log2 fold change of peptide-encoding DNA abundance (4.5 h post-induction vs induction); higher = less antimicrobial activity (less host growth inhibition)
Details: time post-induction: 4.5 h; library: site-saturation at positions 5, 18, 19, 20
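Further: peptides expressed intracellularly from a pBAD plasmid library in pooled LB shake-flask culture, induced with 0.3% L-arabinose, DNA abundance read by NGS, three biological replicates, DESeq2 with apeglm shrinkage.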

Sequence	shrunken log2 fold change
RRIRIRPPRLPRPRPRPWYLPRP	-0.166
RRIRIRPPRLPRPRPRPYAPPRP	-0.242
RRIRIRPPRLPRPRPRPYDAPRP	-1.48
RRIRIRPPRLPRPRPRPYEDPRP	-0.00133
RRIRIRPPRLPRPRPRPYEGPRP	-0.00931
RRIRIRPPRLPRPRPRPYEPPRP	-0.21
RRIRIRPPRLPRPRPRPYIVPRP	-0.0153
RRIRIRPPRLPRPRPRPYKLPRP	-1.04
RRIRIRPPRLPRPRPRPYLAPRP	-0.941
RRIRIRPPRLPRPRPRPYMHPRP	-1.32
RRIRIRPPRLPRPRPRPYMSPRP	-1.19
RRIRIRPPRLPRPRPRPYNEPRP	-0.0675
RRIRIRPPRLPRPRPRPYNWPRP	-0.577
RRIRIRPPRLPRPRPRPYPMPRP	-0.0519
RRIRIRPPRLPRPRPRPYPSPRP	-0.00978
RRIRIRPPRLPRPRPRPYQLPRP	-0.699
RRIRIRPPRLPRPRPRPYQVPRP	-0.14
RRIRIRPPRLPRPRPRPYRGPRP	-0.155
RRIRIRPPRLPRPRPRPYSYPRP	-0.0485
RRIRIRPPRLPRPRPRPYTWPRP	-0.891
RRIRIRPPRLPRPRPRPYVGPRP	-0.384
RRIRIRPPRLPRPRPRPYWVPRP	0.0603
RRIRIRPPRLPRPRPRPYYYPRP	-1.08
RRIRKRPPRLPRPRPRPACPPRP	0.664
RRIRKRPPRLPRPRPRPADQPRP	-0.0199

Sequence	shrunken log2 fold change
RRIRKRPPRLPRPRPRPADRPRP	0.102
RRIRKRPPRLPRPRPRPAENPRP	0.0163
RRIRKRPPRLPRPRPRPAFAPRP	0.647
RRIRKRPPRLPRPRPRPAFIPRP	0.129
RRIRKRPPRLPRPRPRPAFNPRP	-0.169
RRIRKRPPRLPRPRPRPAHHPRP	-0.00814
RRIRKRPPRLPRPRPRPAHIPRP	-0.137
RRIRKRPPRLPRPRPRPAIKPRP	0.191
RRIRKRPPRLPRPRPRPAKLPRP	0.446
RRIRKRPPRLPRPRPRPAKNPRP	0.487
RRIRKRPPRLPRPRPRPAKWPRP	0.26
RRIRKRPPRLPRPRPRPALHPRP	0.374
RRIRKRPPRLPRPRPRPAMAPRP	0.664
RRIRKRPPRLPRPRPRPAMWPRP	0.241
RRIRKRPPRLPRPRPRPASLPRP	-0.23
RRIRKRPPRLPRPRPRPATFPRP	-0.0215
RRIRKRPPRLPRPRPRPAVGPRP	0.472
RRIRKRPPRLPRPRPRPAVSPRP	0.0687
RRIRKRPPRLPRPRPRPAVTPRP	0.0318
RRIRKRPPRLPRPRPRPAWIPRP	0.0453
RRIRKRPPRLPRPRPRPAWYPRP	0.205
RRIRKRPPRLPRPRPRPCASPRP	0.0419
RRIRKRPPRLPRPRPRPCCEPRP	0.638
RRIRKRPPRLPRPRPRPCCHPRP	-1.07
RRIRKRPPRLPRPRPRPCCRPRP	0.146

Sequence	shrunken log2 fold change
RRIRKRPPRLPRPRPRPCDCPRP	-0.0743
RRIRKRPPRLPRPRPRPCDHPRP	0.0248
RRIRKRPPRLPRPRPRPCDYPRP	-0.0336
RRIRKRPPRLPRPRPRPCECPRP	0.62
RRIRKRPPRLPRPRPRPCGYPRP	0.25
RRIRKRPPRLPRPRPRPCHEPRP	0.00408
RRIRKRPPRLPRPRPRPCHIPRP	-0.00879
RRIRKRPPRLPRPRPRPCHQPRP	0.124
RRIRKRPPRLPRPRPRPCIQPRP	0.0636
RRIRKRPPRLPRPRPRPCKPPRP	-0.00919
RRIRKRPPRLPRPRPRPCKSPRP	-0.0499
RRIRKRPPRLPRPRPRPCLFPRP	0.0241
RRIRKRPPRLPRPRPRPCMIPRP	0.0302
RRIRKRPPRLPRPRPRPCMPPRP	0.0752
RRIRKRPPRLPRPRPRPCNPPRP	-0.00652
RRIRKRPPRLPRPRPRPCPHPRP	0.0793
RRIRKRPPRLPRPRPRPCPPPRP	0.0811
RRIRKRPPRLPRPRPRPCRAPRP	0.57
RRIRKRPPRLPRPRPRPCRLPRP	-0.298
RRIRKRPPRLPRPRPRPCRMPRP	-0.00386
RRIRKRPPRLPRPRPRPCRPPRP	0.0439
RRIRKRPPRLPRPRPRPCSCPRP	0.018
RRIRKRPPRLPRPRPRPCSSPRP	-0.0581
RRIRKRPPRLPRPRPRPCSWPRP	0.123
RRIRKRPPRLPRPRPRPCTTPRP	-0.132

Sequence	shrunken log2 fold change
RRIRKRPPRLPRPRPRPCTVPRP	0.23
RRIRKRPPRLPRPRPRPCVQPRP	-0.038
RRIRKRPPRLPRPRPRPCVTPRP	0.0632
RRIRKRPPRLPRPRPRPCVVPRP	0.0713
RRIRKRPPRLPRPRPRPCWDPRP	0.0719
RRIRKRPPRLPRPRPRPCYEPRP	-0.311
RRIRKRPPRLPRPRPRPDAWPRP	-0.0106
RRIRKRPPRLPRPRPRPDDQPRP	-0.018
RRIRKRPPRLPRPRPRPDEMPRP	0.188
RRIRKRPPRLPRPRPRPDGWPRP	0.152
RRIRKRPPRLPRPRPRPDHIPRP	-0.0249
RRIRKRPPRLPRPRPRPDHNPRP	-0.276
RRIRKRPPRLPRPRPRPDHTPRP	0.0503
RRIRKRPPRLPRPRPRPDKAPRP	0.0987
RRIRKRPPRLPRPRPRPDKGPRP	-0.022
RRIRKRPPRLPRPRPRPDMQPRP	-0.0618
RRIRKRPPRLPRPRPRPDNDPRP	-0.00188
RRIRKRPPRLPRPRPRPDNFPRP	-0.0455
RRIRKRPPRLPRPRPRPDQTPRP	-0.0185
RRIRKRPPRLPRPRPRPDRTPRP	0.0739
RRIRKRPPRLPRPRPRPDSQPRP	0.0697
RRIRKRPPRLPRPRPRPDTIPRP	0.163
RRIRKRPPRLPRPRPRPDTVPRP	0.00611
RRIRKRPPRLPRPRPRPDTWPRP	0.35
RRIRKRPPRLPRPRPRPDVSPRP	-0.382

Sequence	shrunken log2 fold change
RRIRKRPPRLPRPRPRPDVVPRP	-0.0061
RRIRKRPPRLPRPRPRPDWNPRP	0.158
RRIRKRPPRLPRPRPRPDYLPRP	0.111
RRIRKRPPRLPRPRPRPEANPRP	0.0281
RRIRKRPPRLPRPRPRPECCPRP	0.327
RRIRKRPPRLPRPRPRPECRPRP	0.313
RRIRKRPPRLPRPRPRPEEFPRP	0.227
RRIRKRPPRLPRPRPRPEEMPRP	-0.000157
RRIRKRPPRLPRPRPRPEGGPRP	0.543
RRIRKRPPRLPRPRPRPEGVPRP	1.44
RRIRKRPPRLPRPRPRPEHTPRP	-0.0305
RRIRKRPPRLPRPRPRPEILPRP	0.728
RRIRKRPPRLPRPRPRPEIPPRP	-0.00514
RRIRKRPPRLPRPRPRPEIWPRP	2.45
RRIRKRPPRLPRPRPRPEKDPRP	0.518
RRIRKRPPRLPRPRPRPELPPRP	0.114
RRIRKRPPRLPRPRPRPENFPRP	-0.00264
RRIRKRPPRLPRPRPRPEPAPRP	1.45
RRIRKRPPRLPRPRPRPEPDPRP	0.877
RRIRKRPPRLPRPRPRPEPYPRP	-0.0587
RRIRKRPPRLPRPRPRPEQCPRP	0.025
RRIRKRPPRLPRPRPRPEQFPRP	-0.0303
RRIRKRPPRLPRPRPRPESAPRP	1.72
RRIRKRPPRLPRPRPRPESPPRP	0.188
RRIRKRPPRLPRPRPRPETPPRP	1.89

Sequence	shrunken log2 fold change
RRIRKRPPRLPRPRPRPEWDPRP	0.12
RRIRKRPPRLPRPRPRPEWNPRP	0.599
RRIRKRPPRLPRPRPRPEYDPRP	1.13
RRIRKRPPRLPRPRPRPEYVPRP	-0.00396
RRIRKRPPRLPRPRPRPFCCPRP	0.27
RRIRKRPPRLPRPRPRPFELPRP	-0.000946
RRIRKRPPRLPRPRPRPFFGPRP	0.304
RRIRKRPPRLPRPRPRPFHVPRP	-0.265
RRIRKRPPRLPRPRPRPFIQPRP	0.0388
RRIRKRPPRLPRPRPRPFKQPRP	0.0339
RRIRKRPPRLPRPRPRPFMIPRP	-0.326
RRIRKRPPRLPRPRPRPFNHPRP	-0.993
RRIRKRPPRLPRPRPRPFNMPRP	0.0229
RRIRKRPPRLPRPRPRPFNRPRP	-0.203
RRIRKRPPRLPRPRPRPFPPPRP	0.33
RRIRKRPPRLPRPRPRPFRKPRP	-0.304
RRIRKRPPRLPRPRPRPFRLPRP	0.0113
RRIRKRPPRLPRPRPRPFRYPRP	-0.0832
RRIRKRPPRLPRPRPRPFTCPRP	0.182
RRIRKRPPRLPRPRPRPFTKPRP	-0.0833
RRIRKRPPRLPRPRPRPFVGPRP	-0.0257
RRIRKRPPRLPRPRPRPFVLPRP	0.389
RRIRKRPPRLPRPRPRPFYAPRP	-0.0279
RRIRKRPPRLPRPRPRPFYHPRP	0.0754
RRIRKRPPRLPRPRPRPFYPPRP	-0.0703

Reference: the supplement of paper PMC9112550, “Optimization of the antimicrobial peptide Bac7 by deep mutational scanning” (BMC Biology, 2022)
